Source: the supplement of paper PMC12042874
± gives the uncertainty stated by the source.

test: amyloid nucleation score (Sup35N fusion, yeast selection) (log enrichment); library NNK2; higher = more nucleation; inactive = no reads after selection
In short: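 The nucleation score equals the log enrichment of output over input reads from DiMSum, centred on the mode score of non-aggregating sequences. It was computed only for sequences with 100 or more input reads. The reads came from Illumina sequencing of plasmid inserts from psi-negative yeast expressing Sup35N fused to peptides of 20 random codons, induced with 100 μM copper sulfate for 24 hours and grown 7 days at 30°C without adenine and uracil.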

Substance	amyloid nucleation score
TAHYLFTWTLSNVILVCGYD	-0.867 ± 0.48
TATETFAF	-0.28 ± 0.28
TCAQYKHGTTVDSNLRSTY	-0.515 ± 0.48
TCDCIIARFDALTSISRLAL	1.02 ± 0.41
TCDKLGAVVMSLLECVNEAP	0.205 ± 0.77
TCDWVVLIYPSSGCCRLEWR	0.99 ± 0.36
TCKMIAISRRGIDPGKAMHS	-1.16 ± 0.49
TCLAESGVAMSVS	0.151 ± 0.29
TCLTGKAVSVDHS	inactive
TCQLMMCNFVFCCKMTSTLK	8.252 ± 0.047
TCRTSTRRPIGWLSWYVG	0.654 ± 0.43
TCVAACTSRRGGISRLLPGN	-0.295 ± 0.38
TCWSFECTIEACLLDHVSTR	5.97 ± 0.081
TDCIWFHYLVTLWFLIRRCP	0.741 ± 0.66
TDIKNRHILSNPWIRLYFLI	-1.16 ± 0.62
TDLIAVGCPLMYSMRE	2.04 ± 0.35
TDNVIMVERDRASKVCERKG	0.433 ± 0.54
TDRIDCAFAYDYL	-1.08 ± 0.54
TDVPSRIGPDMGKYLKAES	0.655 ± 0.62
TDYYAMWFHSIGRFSG	-1.33 ± 0.38
TECITVVIWVYGAISHRSGT	-0.247 ± 0.27
TEMWFDGRNSRMIQAH	0.081 ± 0.36
TEPSGTGKTRGSQRTLHRYV	-0.323 ± 0.79
TFAATIGTCMVEILSMGSPG	0.603 ± 0.52
TFATIRVAFMVMCRFDG	3.23 ± 0.084

Substance	amyloid nucleation score
TFDPMVGLGISLSALCMGRL	-0.104 ± 0.39
TFFMVGNMNNTPSPRPARTK	4.57 ± 0.089
TFGLHIHKPRMPPHGPWFSL	-0.172 ± 0.34
TFINAGFRLHFRFYRFVFSK	-0.717 ± 1
TFLGLS	0.658 ± 0.26
TFLWK	-0.349 ± 0.55
TFMKGTVIT	0.759 ± 0.74
TFMMLMEHGRIYFLWASPVA	-1.68 ± 1.1
TFPNLHFCFTLLLYKGCVCG	-0.101 ± 1.1
TFVLLRSW	2.34 ± 0.13
TFWGTTY	inactive
TFYIYGIHSLA	-0.917 ± 0.34
TGAGVNTGEFCWVDPRSDYQ	-0.161 ± 1.1
TGCWVEERTRLRLRIYDLLY	0.004 ± 1.1
TGENI	inactive
TGLDIGLGWLYMYRGATLAI	0.542 ± 0.35
TGNDFSCFPRALEMATWTTV	0.016 ± 1.1
TGRFLEVREQRRDARVEMSR	0.183 ± 1
TGRITVRRGSHLSLWKSMRL	0.697 ± 0.27
TGRLPLFLQGLDEYPASNPE	-0.288 ± 1.1
TGSVDSSSIV	0.093 ± 0.42
THDPNLRCYFVIGTELHSRT	0.126 ± 0.8
THFSPMGY	-0.586 ± 1.1
THLHQD	-1.55 ± 0.76
THVLIFFMVLDLGPFKTGAD	-0.441 ± 1.1

Substance	amyloid nucleation score
THVNFW	inactive
THWSCSSKLFGEFGWNFVWK	2.89 ± 0.067
THYGLMVCQTPVGRRSASCR	1.32 ± 0.28
TIARVIFNPVLCWKVSSRV	5.52 ± 0.063
TICSHKRKYNWMIGWRMSTF	0.142 ± 0.45
TICYV	-0.564 ± 0.35
TIFGRENYEDVKSASEVGLS	0.135 ± 0.79
TIFHLRDSYINHAKLSSLHG	inactive
TIMYYVWCLFFWMCLGYGHS	1.53 ± 0.1
TIRFS	-1.58 ± 0.37
TIYPFYEKRMRY	-0.459 ± 1.1
TKLYNDIFHNW	inactive
TKMVCSKRMFVECVLNLF	0.221 ± 0.31
TKPNVW	-0.067 ± 0.8
TKSVVLMNSMSS	0.072 ± 1.1
TKVGYLNS	inactive
TLDFCEL	inactive
TLECW	4.1 ± 0.049
TLENQVGSMSIGGFSGGYRR	0.201 ± 1
TLFGHFSYFQD	-0.124 ± 0.65
TLFQLFIYLTFKVQVVAGTT	3.92 ± 0.083
TLFSVCSIHEQWPGEVMVSY	0.918 ± 0.47
TLFVKTYMSVFYIIACSSC	-0.218 ± 0.64
TLIAYCLL	7.492 ± 0.046
TLKEGRWEVPCLIWIWRVWS	1.6 ± 0.36

Substance	amyloid nucleation score
TLKVCSVLIYLYWN	-1.34 ± 0.75
TLLLTWQY	4.46 ± 0.067
TLLNAYNNTLVWIWFVSMPV	5.46 ± 0.081
TLQCDVNTVLILHVYTTYKS	1.13 ± 0.24
TLQLSSADPGLNAFSDVYRV	-0.627 ± 1.1
TLRIGDFPWISWSEGVWVGG	0.244 ± 0.65
TLTLCTSSLDC	1.1 ± 0.61
TLTYYPFMRYAFTVSLWFLF	-1.83 ± 1.1
TLVHNFGCSLGHLKFRQNMW	-0.33 ± 1.1
TLYVVYLDEICYLLFKVSYC	1.2 ± 0.66
TMCWPMILK	-0.072 ± 0.27
TMFGPH	0.775 ± 0.74
TMFTFIAANSRWLNAKIPWY	0.157 ± 0.25
TMGNHFVFVS	inactive
TMSGCSLLCWEYNASQDLSN	-0.071 ± 0.62
TNGCALRSLNWLIVS	-0.44 ± 0.31
TNGRCVELVMMYKYSLFVGD	1.05 ± 0.61
TNMIMLFIRMGLRHGDKWAW	2.54 ± 0.19
TNMPRWECSHGGRECGKGPA	1.19 ± 0.18
TNRGCSMKRRKSINPRILGM	inactive
TNRRILSFGVNL	-0.427 ± 0.78
TNVLYMLWTFKVDERY	5.964 ± 0.049
TPNIGSSRVVMLSLQLLN	6.955 ± 0.054
TQFFFDFFE	0.432 ± 0.4
TQWSFGGYQRVGGLVVHAKR	3.03 ± 0.17

Substance	amyloid nucleation score
TQYFYIMLQ	5.16 ± 0.071
TRAHSED	0.49 ± 0.32
TRFTYCFVVRNLVTRNRPIS	-0.646 ± 0.22
TRMCGMGTQGGLSRF	0.257 ± 0.65
TRPVNLDLIFISSG	2.92 ± 0.098
TRTGCDMGRRLVCS	0.171 ± 0.35
TRWLGGISMGNSVFVLIRTL	0.416 ± 0.51
TSARRQLDDQRAWPEMAN	0.239 ± 0.62
TSCGCTW	0.092 ± 1.1
TSDITAVFNSFLKFR	-0.744 ± 0.74
TSGMYMCFLMLLVFCQLLNG	-1.21 ± 0.44
TSGPLFAPPC	0.402 ± 0.66
TSGRLR	1.67 ± 0.38
TSGVTWQLACSVK	4.2 ± 0.095
TSHVGL	-1.39 ± 0.49
TSKFSLRVFDLFSIYGYGHT	-0.125 ± 0.45
TSLKYSVENTVASPVDRTWL	-0.055 ± 1.1
TSPNFLSRLQVRYYRIRVSL	-0.026 ± 0.35
TSRDFYRNAGIARFAYYNSP	-1.15 ± 0.23
TSRDSRAL	-0.742 ± 1.1
TSSQTHSR	-0.03 ± 0.63
TSSTSRVDRACPGDSWPDID	-0.068 ± 0.42
TSVLA	-1 ± 1.1
TSVVNLNRMAFKTKFLQNTI	-1.1 ± 1.1
TSYTLDYCGISMLKYFNSVD	7.188 ± 0.062

Substance	amyloid nucleation score
TTFTIWAYMVAHQYLEIGCI	inactive
TTGRKFMMIVTGGCGESGRF	-0.77 ± 0.42
TTIFGNSATLDGIPHIIKRP	-0.268 ± 0.79
TTLITVSVT	inactive
TTSRLRWKRSHHKW	1.4 ± 0.29
TTVERWVVFRKVQMRYRIRL	5.396 ± 0.049
TVATRHYNLNGQSWKKWAQ	0.059 ± 0.23
TVGVCGTLPGSASRHVYFRE	0.286 ± 0.24
TVHDYFDVQECVIDQCKGLP	0.654 ± 0.57
TVLVSRFDIIRHRCPTELKR	0.153 ± 0.8
TVNLGSYSEMRFLLLQEQAS	-0.747 ± 0.63
TVREKDYIEDFGVIWRKGIY	0.791 ± 0.81
TVRVGAIVNSTHLVGTNSAF	-0.314 ± 0.34
TVVVWA	0.19 ± 0.31
TVYGHRVGGRSFVL	0.295 ± 0.28
TVYYNQLSD	-0.982 ± 0.76
TWHKFVSCDCGLH	0.677 ± 0.47
TWNLMNKVYIVPGLDPDTRS	7.225 ± 0.055
TWQEAHNSQLGGFSIPEKN	0.155 ± 1.1
TYADW	0.902 ± 0.3
TYCHYVADFLPLFRFRISGG	3.1 ± 0.065
TYFAEIMNTPLRPSARHEAR	1.72 ± 0.33
TYGCLFDSSIMSFQLSLDNF	-0.28 ± 0.49
TYIRSVYDAFAC	inactive
TYKFLSVFIDEFGQDFIMIW	-1.11 ± 0.43

Substance	amyloid nucleation score
TYLGNLYIMRFRAVLREPLV	0.077 ± 0.8
TYMCQYDSLLTKTMINNRRG	-0.611 ± 0.61
TYMDNFFVSCGMLKQVYASV	-0.223 ± 0.16
TYRIGYMNQCTSR	-0.215 ± 0.35
TYYKRN	-0.4 ± 0.34
VACVAHNTHYELTQQSYIYY	5.609 ± 0.046
VAIGLLVEGGFFIHRNICLW	-1.36 ± 0.62
VAILIMHCGAGSCRQMLMDS	0.305 ± 0.45
VALFS	-0.029 ± 0.8
VALRFTIMDCRIYLYSLNVF	0.125 ± 0.79
VAPTETRVDPIPSVGPVPGA	1.66 ± 0.34
VARFILHCY	-0.492 ± 0.28
VASYAIGSFYADVACVEPRY	0.835 ± 0.43
VAVFLNNA	inactive
VCHHSSI	inactive
VCIMSRYKLQLLKNSNGITH	2.53 ± 0.16
VCIRVRRDRKVMWDWSV	1.5 ± 0.24
VCRPRTTNIGAWRRFRFLFW	-0.601 ± 0.41
VCVFMDFHLYMMSARQSTKD	7.894 ± 0.042
VCYKIVKTSYNSFWDF	4.39 ± 0.1
VCYMGTRCGWNSRARVFWGS	2.69 ± 0.11
VCYMLRNFCDVQHKK	0.1 ± 0.63
VDCTEV	1.26 ± 0.26
VDFCVDVLFC	-1.06 ± 1.1
VDGVSLSGEFFNTIVNNFCI	6.08 ± 0.062
